Measured values as given in paper PMC9513391, “Crystal structure of the α-ketoglutarate-dependent non-heme iron oxygenase CmnC in capreomycin biosynthesis and its engineering to catalyze hydroxylation of the substrate enantiomer” (Frontiers in Chemistry, 2022).

Target: the molecule itself
Assay: crystal structure; CmnC apo and soaked complexes (L-Arg, L-hArg, alpha-KG, L-Arg/alpha-KG), space group I222, two chains in the asymmetric unit; apo crystals from 200 mM ammonium acetate, 24% v/v PEG 400, 0.1 M sodium citrate pH 5.5, 20°C

B1: CmnC (enzyme)
chain: MTAIREIRLSEPESAQAALLALECAQRYAEPDSADFLADAAVLAHDLPRAVRREVERARLDDRLHALVVRGNDVDQDALGPTPPHWRQARTAASRRYGFLLVLYASLLGDVVGWATQQDGRVVTDVLPIEGQEDSLVSSSSSVELGWHTEDAFSPYRADYVGLFSLRNPDSVATTVAGLDPDLVGPAVVDVLFGERFHIRPDNSHLPTHNSGGRLSDYFAGIVEAVENPRAVSILRGHRDAPQLCVDSDFTTAVDGDAEAAGALDTLIKHLGGALYEVVLGPGDVAFLDNRNVVHGRRPFRARFDGTDRWLKRINVTADLRKSRAARRDAQARVLGEA
notes: CmnC, alpha-ketoglutarate-dependent non-heme iron oxygenase of capreomycin biosynthesis; gene cmnC amplified from genomic DNA of the capreomycin producer (ATCC 23892) and subcloned into pET28a; also called CmnC^apo; wild-type CmnC
- stoichiometry N: 2
